Results published in the supplement of paper PMC12764529.
± gives the half width of the 95% confidence interval.

Tests used:
[1] = folding stability dG unfold from trypsin proteolysis; higher = more stable
Summary of the method: (§1)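 Digests were run with trypsin and chymotrypsin at 11 concentrations in threefold dilutions, plus a no-protease condition, on designed mini-proteins in a PA-tagged cDNA display construct. The mini-proteins were under 80 residues, had no cysteine, and were kept only when AlphaFold2 dimer inter-PAE was above 15. After sequencing, Bayesian fitting of the counts gave K50, from which unfolding free energy was derived against a sequence-predicted unfolded-state K50 and a shared folded-state K50, per protease or combined.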

[2] = folding stability dG unfold from chymotrypsin proteolysis; higher = more stable
Summary of the method: as §1

[3] = folding stability dG unfold (combined trypsin and chymotrypsin); higher = more stable
Summary of the method: as §1

Sequence | folding stability dG unfold [1] | folding stability dG unfold [2] | folding stability dG unfold [3]
SAGGMNLMIKIENNGEPITFMINSPEDAEEIASNLPELGYPIEVKKLEPQRNEDGNPMVMVEIRIKPSAGGS [r8_336_TrROS] | 0.763 ± 0.14 kcal/mol | 1.63 ± 0.15 kcal/mol | 1.21 ± 0.23 kcal/mol
SAGGSAKPVKVDTLVLTAPFESKEEAEKAVEEFAKAVAEKLPKDVKVEVEVKYDPETKTFTAVVKASAGGSA [r15_981_TrMRF] | 2.23 ± 0.093 kcal/mol | 2.368 ± 0.018 kcal/mol | 2.34 ± 0.051 kcal/mol
SAGGSAGGKEIKVIELPEEKVTIEVTITLEDGTVIKVTAVIDAETGEIVEITSVEIVPLPAEEKSAGGSAGG [r6_927_TrROS_Hall] | -0.122 ± 0.11 kcal/mol | 1.88 ± 0.2 kcal/mol | 1.36 ± 0.21 kcal/mol
SAGGSAGGSMRIEFPELGVEVELEPLPGPHVLLRAVFPDGRVYLFRLDPDGRLVEVEPVEVLASAGGSAGGS [r12_56_TrMRF] | 2.99 ± 0.089 kcal/mol | 3.42 ± 0.035 kcal/mol | 3.23 ± 0.11 kcal/mol
SAGGSAGGSMTIPILFPIPPGQPPGMEITFRFPGYKIEIEILEVDPENGWIAFMIELTDPGDDSAGGSAGGS [r12_1039_TrROS] | 3.13 ± 0.093 kcal/mol | 4.36 ± 0.095 kcal/mol | 3.92 ± 0.11 kcal/mol
SAGGSMELYTKSPDGKLFKVKIVNPGNAKDKVLFEAEVFDPKNNKPIGRFTGVVDPKTGKIISIKPSAGGSA [r2_324_TrMRF] | 1.6 ± 0.035 kcal/mol | 1.68 ± 0.083 kcal/mol | 1.64 ± 0.13 kcal/mol
SAGMKVIIGKNKIYVLVKLPNGEKKLFEIDIENIEKIKKIEIDIGKGYAKIGSKDNIPIYTKIKKVYNVSAG [r5_388_TrMRF] | 2.2 ± 0.058 kcal/mol | 2.82 ± 0.11 kcal/mol | 2.6 ± 0.14 kcal/mol
SAGGSAGGSPLPPEVYKIRLKVDGKWYEALARVKPDGTVEVFLKDTGKTFTVPLKDLEIEKLDSAGGSAGGS [r12_782_TrROS_Hall] | 3.25 ± 0.19 kcal/mol | 3.51 ± 0.064 kcal/mol | 3.35 ± 0.14 kcal/mol
SALDAKEIAEEFMKKFPPNFRDITVDVENTGNKRKIKIMFRMPNRYWTQEFDLDDGKIEIEPINPGQPLSAG [r14_737_TrROS] | 0.862 ± 0.091 kcal/mol | 0.368 ± 0.15 kcal/mol | 0.672 ± 0.066 kcal/mol
SAGGELSEEFVKKLFENLGFEELEVVDLENKKVAYFRKGNYLVKVYDDGTIEIFDENGELVETINVDSAGGS [r8_147_TrMRF] | 2.26 ± 0.12 kcal/mol | 3.89 ± 0.053 kcal/mol | 3.48 ± 0.19 kcal/mol
SAGGSAGGSMPPNFRVMIHDDDGEERTFHMSPEDLKEFADNLPDVKVEPHPPGMMHITVRVPKSAGGSAGGS [r20_231_TrROS] | -0.72 ± 0.19 kcal/mol | 0.454 ± 0.085 kcal/mol | 0.101 ± 0.092 kcal/mol
SAGGKTIVVPEKDVEKLLKELEKLGFKVTKVERKDGYVTVTIEVEKDGKLEKIEIRIYRPEDLDKPPSAGGS [r8_307_TrROS_Hall] | 1.1 ± 0.072 kcal/mol | 2.28 ± 0.06 kcal/mol | 2.01 ± 0.15 kcal/mol
SAGGSAGGSAGMKITIDGKVAEIEEVEVDGKLYYFIRVEGRLYVFDVETGEIREISPEDLSAGGSAGGSAGG [r11_9_TrROS_Hall] | 3.14 ± 0.074 kcal/mol | 4.16 ± 0.033 kcal/mol | 3.91 ± 0.054 kcal/mol
SAGGPGTREVEITIPADELREEHPNLTDEELVEEVMELARGIAQEQGYPIKKVDITHDKDGWVTIKLSAGGS [r8_368_TrROS] | 0.383 ± 0.091 kcal/mol | 0.152 ± 0.11 kcal/mol | 0.322 ± 0.16 kcal/mol
SAGGMSIEELLKEAGYEVTVEEEEVDGKLRLKITIKANGKTLVIEVPESDAEEVLREIAKALGLEPESAGGS [r8_226_TrROS_Hall] | 4.2 ± 0.42 kcal/mol | 3.01 ± 0.047 kcal/mol | 3.53 ± 0.18 kcal/mol
SAGGSAGGSKKPKFKVKKVEVVEENGKLRIRIVLEDGKKIEIEIKGLSKEEIEKKAKELLKKLSAGGSAGGS [r20_181_TrROS_Hall] | 3.57 ± 0.33 kcal/mol | 3.93 ± 0.2 kcal/mol | 3.66 ± 0.22 kcal/mol
SAGGSAGGSAGKKIKVRIKVKDPETNEYYEIEIEAETEEEALEALKKLFPNVKKVEIVPASAGGSAGGSAGG [r11_25_TrROS_Hall] | 3.26 ± 0.11 kcal/mol | 2.69 ± 0.11 kcal/mol | 3.18 ± 0.15 kcal/mol
SAGGSAGGSAGEKPVYYARVTEVKYNPENKELEIKLENGETITLSLEELKSLKPGDIIRISAGGSAGGSAGG [r11_124_TrROS_Hall] | 1.88 ± 0.057 kcal/mol | 2 ± 0.023 kcal/mol | 1.97 ± 0.065 kcal/mol
SSLENLEPVSYDVTVEEGPTSPSGVTYTRITITEPGGSTATVTVTPESLTLDYSVRDKARVEALVRELLESA [r9_662_JUSTAS] | 0.957 ± 0.019 kcal/mol | 0.989 ± 0.11 kcal/mol | 1.04 ± 0.064 kcal/mol
SAGGSEVTLKVKVRRKVFKDGKLVAEEEVEKEVRVKLPPPPKIELSPELRKALEENDLEKIKKALESAGGSA [r2_196_TrROS_Hall] | 1.43 ± 0.066 kcal/mol | 1.74 ± 0.053 kcal/mol | 1.62 ± 0.11 kcal/mol
SAGMSLEEIAKEFAKKKGLKKVEIKYYPEKKTYEIKVYLEEPGEPKTATIKVEDVTPETFKKAIEEILESAG [r5_896_TrMRF] | 3.61 ± 0.32 kcal/mol | 4.75 ± 0.16 kcal/mol | 4.83 ± 0.41 kcal/mol
